In series [1] the target is T1, PYR1^CA3 (H60P, V83F, F159V), 6xHis fusion.
T1 chain: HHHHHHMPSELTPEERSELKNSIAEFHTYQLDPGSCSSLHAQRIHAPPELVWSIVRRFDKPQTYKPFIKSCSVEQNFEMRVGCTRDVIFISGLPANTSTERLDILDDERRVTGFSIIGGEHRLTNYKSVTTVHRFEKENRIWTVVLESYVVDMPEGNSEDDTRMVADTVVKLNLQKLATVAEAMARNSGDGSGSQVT

For series [2], the target named is T2, PYR1^CA4 (H60P, V83F, F159V, M158I), 6xHis fusion.
T2 chain: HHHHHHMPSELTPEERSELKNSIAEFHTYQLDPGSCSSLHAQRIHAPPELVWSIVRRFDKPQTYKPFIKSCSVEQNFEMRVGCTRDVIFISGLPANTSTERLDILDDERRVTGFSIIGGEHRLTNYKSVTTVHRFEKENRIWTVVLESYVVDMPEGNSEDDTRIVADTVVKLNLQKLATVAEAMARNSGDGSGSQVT

B1: 6xHis-SUMO-ABI1 (protein)
chain: HHHHHHSDSEVNQEAKPEVKPEVKPETHINLKVSDGSSEIFFKIKKTTPLRRLMEAFAKRQGKEMDSLRFLYDGIRIQADQTPEDLDMEDNDIIEAHREQIGGMEEVSPAIAGPFRPFSETQMDFTGIRLGKGYCNNQYSNQDSENGDLMVSLPETSSCSVSGSHGSESRKVLISRINSPNLNMKESAAADIVVVDISAGDEINGSDITSEKKMISRTESRSLFEFKSVPLYGFTSICGRRPEMEDAVSTIPRFLQSSSGSMLDGRFDPQSAAHFFGVYDGHGGSQVANYCRERMHLALAEEIAKEKPMLCDGDTWLEKWKKALFNSFLRVDSEIESVAPETVGSTSVVAVVFPSHIFVANCGDSRAVLCRGKTALPLSVDHKPDREDEAARIEAAGGKVIQWNGARVFGVLAMSRSIGDRYLKPSIIPDPEVTAVKRVKEDDCLILASDGVWDVMTDEEACEMARKRILLWHKKNAVAGDASLLADERRKEGKDPAAMSAAEYLSKLAIQRGSKDNISVVVVDLKPRRKLKSKPLN
In the case of B1, the “PP2C activity, % of control, pNPP hydrolysis, in the absence of ABA” value was “both the triple and quadruple mutants dramatically increased basal PYR1 activity relative to wild-type PYR1” in series [1]; “both the triple and quadruple mutants dramatically increased basal PYR1 activity relative to wild-type PYR1” in series [2].

B2: 6xHis-SUMO-ABI2 (protein)
chain: HHHHHHSDSEVNQEAKPEVKPEVKPETHINLKVSDGSSEIFFKIKKTTPLRRLMEAFAKRQGKEMDSLRFLYDGIRIQADQTPEDLDMEDNDIIEAHREQIGGMDEVSPAVAVPFRPFTDPHAGLRGYCNGESRVTLPESSCSGDGAMKDSSFEINTRQDSLTSSSSAMAGVDISAGDEINGSDEFDPRSMNQSEKKVLSRTESRSLFEFKCVPLYGVTSICGRRPEMEDSVSTIPRFLQVSSSSLLDGRVTNGFNPHLSAHFFGVYDGHGGSQVANYCRERMHLALTEEIVKEKPEFCDGDTWQEKWKKALFNSFMRVDSEIETVAHAPETVGSTSVVAVVFPTHIFVANCGDSRAVLCRGKTPLALSVDHKPDRDDEAARIEAAGGKVIRWNGARVFGVLAMSRSIGDRYLKPSVIPDPEVTSVRRVKEDDCLILASDGLWDVMTNEEVCDLARKRILLWHKKNAMAGEALLPAEKRGEGKDPAAMSAAEYLSKMALQKGSKDNISVVVVDLKGIRKFKSKSLN
B2: the “PP2C activity, % of control, pNPP hydrolysis, in the absence of ABA” value in series [1] is “both the triple and quadruple mutants dramatically increased basal PYR1 activity relative to wild-type PYR1”; in series [2], “both the triple and quadruple mutants dramatically increased basal PYR1 activity relative to wild-type PYR1”.

Values taken from patent US20140259226.
